Data: US20250283886A1

Target: polypeptides with a terminal leucine residue
Assay: single-molecule dwell time analysis, distribution of mean pulse durations, Leu; filtered 0.00s≤dur≤20.00s and magnitude above baseline > 15.0

B1: S. elongatus ClpS2 (protein)
chain: MSPQPDESVLSILGVPRPCVKKRSRNDAFVLTVLTCSLQAIAAPATAPGTTTTRVRQPYPHFRVIVLDDDVNTFQHVAECLLKYIPGMTGDRAWDLTNQVHYEGAATVWSGPQEQAELYHEQLRREGLTMAPLEAA
Work on B1 yielded a mean pulse duration (value at the dashed line) of 0.35 s.
